# Target: T1, human TNFα N-his trimer (human, UniProt P01375 77-233)
# T1 construct: Captured on an NTA sensor chip through the N-terminal His tag for Biacore; also called His-tagged TNF (made by ESBATech); not shown: N-terminal His tag
# Assay: SPR (BIAcore T100), His-tagged TNFα captured on an NTA chip, scFv as analyte
# T1 sequence (P01375 77-233 limits assumed): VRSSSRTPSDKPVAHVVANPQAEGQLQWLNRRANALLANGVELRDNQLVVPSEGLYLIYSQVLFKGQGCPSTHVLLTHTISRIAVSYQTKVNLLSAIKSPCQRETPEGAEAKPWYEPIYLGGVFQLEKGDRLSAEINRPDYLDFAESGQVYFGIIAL
binder,measurement,value
EP43max (scFv) EIVMTQSPSTLSASVGDRVIIKCQASQSISDWLAWYQQKPGKAPKLLIYGASRLASGFPSRFSGSGSGAEFTLTISGLEPADFATYYCQQGWSDSYVDNLFGQGTKLTVLGGGGGSGGGGSGGGGSGGGGSEVQLVESGGGLVQPGGSLRLSCTVSGFSLSSGAMSWVRQAPGKGLEWVGVIISSGATYYASWAKGRFTISKDTSKNTVYLQMNSLRAEDTAVYYCARGGPDDSNSMGTFDPWGQGTLVTVSS,Kd,250 pM

# Reference: patent KR20210097819A (dated 2021)
